Test results: patent US10889618B2, “D-enantiomeric peptides derived from D3 and use thereof” (FORSCHUNGSZENTRUM JUELICH GMBH, priority 2012, dated 2021)
Entries after “also recorded” stand apart in the source; their conditions may differ. Non-standard residues stand in square brackets, D forms with d. No end group written: not given here.

Columns and labels:
A-beta1-42 = target: T1, A-beta1-42 (Homo sapiens, UniProt P05067); experiment: Density gradient centrifugation (iodixanol): modulation of A-beta1-42 aggregation behavior; assay type: biochemical; conditions: for Peptide bound in fraction 12 [%]: FITC-labelled peptide, amount of dye in fraction 12 of the iodixanol gradient, estimate of binding to / precipitation of A-beta oligomers; for Effect on A-beta aggregation (distribution of A-beta over gradient fractions): 80 μM A-beta1-42, 20 μM peptide, 259,000×g, 3 h, 4° C., SDS-PAGE, silver staining
T1 construct: overlayed with 100 μl of a 80 μM A-beta1-42 solution
T1 sequence (P05067 672-713): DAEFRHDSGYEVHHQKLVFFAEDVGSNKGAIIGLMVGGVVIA
Text: The effects of the peptides described in the table on A-beta aggregation were investigated by means of density gradient centrifugation. Thus, A-beta was mixed with the respective peptide and the particles formed are separated according to size. The sample to be investigated was placed on the surface of the centrifuge tube in which a density gradient was charged, which consisted of layers of different iodixanol concentrations in this example. During the several hours of separation, the molecules sediment at different rates in the solvent, namely, more rapidly the larger the particles. The centrifugation is terminated at a suitable time point and different constituents of the sample are obtained in the various layers which are analyzed by SDS-PAGE. A-beta without addition of peptide served as control.
This changes on addition of RD2. […] Large aggregates are formed which are detectable in fractions 10-15. […] All D-enantiomeric peptides which were characterized with A-beta using the method mentioned above were labelled with FITC. The amount of dye detectable in fraction 12 was used to estimate the binding strength of the respective D3 derivative to A-beta oligomers or the oligomer precipitating effects thereof in vitro. It was shown that the peptide RD2 especially has a significant effect on A-beta aggregation compared to D3.
FIG. 1: Modulation of the A-beta1-42 aggregation behavior by RD2, analzyed by an iodixanol density gradient. The iodixanol gradient was overlayed with 100 μl of a 80 μM A-beta1-42 solution and 100 μl of a 80 μM A-beta and 20 μM RD2 mixture. The mixture was then centrifuged at 259,000×g for 3 h at 4° C. The 15 fractions (fraction 15 is the pellet boiled with the loading buffer) were harvested manually immediately after the centrifugation and analyzed by Tris-Tricin-SDS-PAGE followed by silver staining.

A-beta oligomers = A-beta oligomers (Homo sapiens, UniProt P05067); conditions: D3 in higher concentrations (than 20 μM); cited from earlier work
Chain of A-beta oligomers (P05067 672-713 limits assumed): as the sequence (P05067 672-713) above

Substance	Peptide bound in fraction 12 [%] (A-beta1-42)	Effect on A-beta aggregation (distribution of A-beta over gradient fractions) (A-beta1-42)	Precipitation of A-beta oligomers (A-beta oligomers)
pnhhrrrrrttl ([dP][dN][dH][dH][dR][dR][dR][dR][dR][dT][dT][dL]) [RD1, D3 derivative, rational D3]	3	–	–
ptlhthnrrrrr ([dP][dT][dL][dH][dT][dH][dN][dR][dR][dR][dR][dR]) [RD2, D3 derivative, rational D3]	20	fewer A-beta oligomers could be detected in the fractions 3-9	–
rprtrl ([dR][dP][dR][dT][dR][dL]) [NT-D3, D3 derivative, D3-N-Terminus]	0	–	–
rprtrlhthrnr ([dR][dP][dR][dT][dR][dL][dH][dT][dH][dR][dN][dR]) [Peptide D3, D-enantiomeric D-peptide D3, parent peptide used as comparison, reference compound]	4	no change was apparent; also recorded: no effect	precipitates A-beta oligomers and converts them into large, amorphous and non-toxic aggregates
rprtrlrnr ([dR][dP][dR][dT][dR][dL][dR][dN][dR]) [Peptide D3Δhth, D3 with deletion hth]	2	–	–
rrptlrhthnrr ([dR][dR][dP][dT][dL][dR][dH][dT][dH][dN][dR][dR]) [RD3, D3 derivative, rational D3]	4	–	–
